Measured values reported in article PMC8162069.

Tested on: O=C[C@H](O)COP(=O)(O)O
Test: purified protein
Format: biochemical, Homo sapiens
Conditions: without HA

Substance: Hs-GAPDH (Homo sapiens)
- Km: 240 ± 20 µM
- kcat: 21.7 ± 1.67 s⁻¹
- kcat/Km: 90000 M⁻¹ s⁻¹

Substance: Hs-GAPDH (Homo sapiens; A232S/F233V)
- Km: 490 ± 210 µM
- kcat: 7.67 ± 2 s⁻¹
- kcat/Km: 15700 M⁻¹ s⁻¹
